# Data reported in the RNAGym collection of RNA variant scans (doi:10.1021/acssynbio.7b00057).
# B1: Pistol ribozyme (parent)
# chain: GGGUCGUUGUUCCAUAAUCGCGUGGAUAUGGCACGCAAGUUUCUACCGGGCACCGUAAAUGUCCGACUGGAGCCGUUCGGGCGGCUAUAAACAGACCUCAGGCCCGAAGCGUGGCGGCACCUGCCGCCGGUGGUAAAAAAGAUCGGAAGAGCACACGUCU
# Variants of: B1
# Assay: aptazyme ON/OFF ratio, guanine; higher = stronger switching; co-transcriptional cleavage with and without guanine
row,Variant,aptazyme ON/OFF ratio
1,U7G G9U U10C U11A C12U,1.8
2,U7G G9U U10C U11A C12A,1.58
3,U7G G9U U10C U11A C12G,1.57
4,U7G G9C U11A C13U,1.62
5,U7G G9C U11A C13A,1.41
6,U7G G9C U11A C13G,1.19
7,U7G G9C U10A U11G C13G,1.14
8,U7G G9C U10A U11G C13A,1.13
9,U7G G9C U10A U11G C13U,1.4
10,U7G G9C U10C U11A C12G C13A,1.13
11,U7G G9C U10C U11A C12G C13G,1.2
12,U7G G9C U10C U11A C12G C13U,1.31
13,U7G G9U U10C U11A C13U,1.36
14,U7G G9U U10C U11A C13A,1.34
15,U7G G9U U10C U11A C13G,1.16
16,U7G G9C U11G C12G C13G,1.36
17,U7G G9C U11G C12G C13U,1.29
18,U7G G9C U11G C12G C13A,1.17
19,U7G G9C U10G U11G C12A C13A,1.1
20,U7G G9C U10G U11G C12A C13U,1.12
21,U7G G9C U10G U11G C12A C13G,1.13

row,Variant,aptazyme ON/OFF ratio
1,U7G G9C U10G U11C C12U C13A,1.29
2,U7G G9C U10G U11C C12U C13G,1.26
3,U7G G9C U10G U11C C12U C13U,1.19
4,U7G G9C U10C C12A,1.5
5,U7G G9C U10C C12G,1.29
6,U7G G9C U10C C12U,1.7
7,U7G G9C U10G U11G C12G,1.07
8,U7G G9C U10G U11G C12U,1.32
9,U7G G9C U10G U11G C12A,1.05
10,U7G G9U U10C U11A C12G C13U,1.26
11,U7G G9U U10C U11A C12G C13A,1.13
12,U7G G9U U10C U11A C12G C13G,1.13
13,U7G G9C U10C U11C C12A,1.03
14,U7G G9C U10C U11C C12U,1.06
15,U7G G9C U10C U11C C12G,1.14
16,U7G G9C U11A C12A C13A,1.35
17,U7G G9C U11A C12A C13G,1.27
18,U7G G9C U11A C12A C13U,1.52
19,U7G G9C U10C C12A C13A,1.16
20,U7G G9C U10C C12A C13G,1.16
21,U7G G9C U10C C12A C13U,1.36

row,Variant,aptazyme ON/OFF ratio
1,U7G G9C U10G U11G C12G C13G,1.06
2,U7G G9C U10G U11G C12G C13A,1.11
3,U7G G9C U10G U11G C12G C13U,1.12
4,U7G G9C U11C C12A C13G,1.28
5,U7G G9C U11C C12A C13A,1.42
6,U7G G9C U11C C12A C13U,1.5
7,U7G G9U C13U,1.45
8,U7G G9U C13G,1.2
9,U7G G9U C13A,1.38
10,U7G G9U U10A U11A,3.18
11,U7G G9U U10A U11G,3.03
12,U7G G9U U10A U11C,1.17
13,U7G G9C U10G U11A C13A,1.18
14,U7G G9C U10G U11A C13G,1.16
15,U7G G9C U10G U11A C13U,1.24
16,U7G G9U U10A U11C C13A,1.35
17,U7G G9U U10A U11C C13U,1.18
18,U7G G9U U10A U11C C13G,1.12
19,U7G G9C U10C U11G,1.18
20,U7G G9C U10C U11A,1.65
21,U7G G9C U10C U11C,1.17

row,Variant,aptazyme ON/OFF ratio
1,U7G G9C U10G U11C C12A C13U,1.33
2,U7G G9C U10G U11C C12A C13A,1.19
3,U7G G9C U10G U11C C12A C13G,1.23
4,U7G G9C U10G C12G,1.51
5,U7G G9C U10G C12A,1.65
6,U7G G9C U10G C12U,1.38
7,U7G G9C U10G C12U C13G,1.38
8,U7G G9C U10G C12U C13U,1.13
9,U7G G9C U10G C12U C13A,1.24
10,U7G G9C U10C U11G C12U C13G,1.26
11,U7G G9C U10C U11G C12U C13U,1.34
12,U7G G9C U10C U11G C12U C13A,1.33
13,U7G G9U U10A U11A C13G,1.18
14,U7G G9U U10A U11A C13U,1.39
15,U7G G9U U10A U11A C13A,1.28
16,U7G G9U U10A U11A C12A C13U,1.38
17,U7G G9U U10A U11A C12A C13A,1.17
18,U7G G9U U10A U11A C12A C13G,1.26
19,U7G G9C U10G U11A C12U C13G,1.28
20,U7G G9C U10G U11A C12U C13A,1.17
